US20130288305A1 (AVEO PHARMACEUTICALS, published 2013)

T1: recombinant human FGFR1 beta (IIIb)/Fc Chimera (human, UniProt P11362-19 120-376)
T1 construct: Treated as one reagent; also called rhFGFR1β-IIIc-Fc; rhFGFR1β-IIIb-Fc; Fc part of the bought chimera not given
T1 sequence (looked up): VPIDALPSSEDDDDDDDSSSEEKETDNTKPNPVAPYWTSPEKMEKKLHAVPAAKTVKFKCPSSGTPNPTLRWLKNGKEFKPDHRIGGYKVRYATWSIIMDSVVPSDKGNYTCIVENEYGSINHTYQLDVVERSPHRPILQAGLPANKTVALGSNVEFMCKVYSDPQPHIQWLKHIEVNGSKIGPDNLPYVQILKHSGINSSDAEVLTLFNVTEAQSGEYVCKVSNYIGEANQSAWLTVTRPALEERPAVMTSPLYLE


Key:
[1] = molecular target: T2, recombinant human FGFR2 beta (IIIb)/Fc in which the Fc region was removed enzymatically (human, UniProt P21802-3 152-378, limits assumed); assay: SPR (Biacore T100), antibody captured on anti-human IgG Fc, rhFGFR2β-IIIb-cleaved as analyte, 25 C
T2 construct: also called rhFGFR2β-IIIb-cleaved; monomeric recombinant human FGFR2 beta IIIb
T2 sequence (P21802 other isoform, or with tags, fused parts or gaps limits assumed): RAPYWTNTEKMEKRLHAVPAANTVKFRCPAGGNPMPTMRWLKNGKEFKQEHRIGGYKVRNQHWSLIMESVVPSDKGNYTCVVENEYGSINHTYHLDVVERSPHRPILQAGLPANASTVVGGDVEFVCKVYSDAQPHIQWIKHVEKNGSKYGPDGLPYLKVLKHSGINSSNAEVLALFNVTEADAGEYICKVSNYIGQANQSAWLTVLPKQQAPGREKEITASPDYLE
Protocol: (§1) Goat anti-human IgG Fc (Jackson ImmunoResearch, Catalog No. 109-005-098) was immobilized on carboxymethylated dextran CM4 sensor chips (Biacore) by amine coupling (Biacore) using a standard coupling protocol according to the vendor's instructions. The analyses were performed at 25° C. and 37° C. using PBS (Invitrogen) containing 0.05% surfactant P20 (Biacore) as running buffer.
(§2) Purified antibodies were captured in individual flow cells at a flow rate of 10 μl/minute. Injection time was varied for each antibody to yield an Rₘₐₓ between 30 and 90 RU. […] The dissociation phase was monitored for up to 900 seconds. The surface was then regenerated with two 60 second injections of glycine pH 2.25 (made from glycine pH 2.0 (Biacore) and pH 2.5 (Biacore)) at 30 μl/minute. Experiments were conducted using concentrations of rhFGFR2β-IIIb-cleaved between 20 and 1.25 nM (a two-fold serial dilution).
(§3) Kinetic parameters were determined using the kinetic function of the BlAevaluation software (Biacore) with double reference subtraction. Kinetic parameters for each antibody, kₐ (association rate constant), kd (dissociation rate constant) and KD (equilibrium dissociation constant) were determined.

[2] = molecular target: T2, recombinant human FGFR2 beta (IIIb)/Fc …; assay: SPR (Biacore T100), antibody captured on anti-human IgG Fc, rhFGFR2β-IIIb-cleaved as analyte, 37 C
Protocol: as §1, §2

[3] = molecular target: T2, recombinant human FGFR2 beta (IIIb)/Fc …; assay: SPR (Biacore T100), antibody captured on anti-mouse IgG, FGFR protein as analyte, 37 C
Protocol: (§4) Rabbit anti-mouse IgGs (GE Healthcare) were immobilized on carboxymethylated dextran CM4 sensor chips (GE Healthcare) by amine coupling, using a standard coupling protocol, according to the vendor's instructions (GE Healthcare). The analyses were performed at 25° C. and 37° C., using PBS containing 0.05% surfactant P20 (GE Healthcare) as running buffer.
(§5) The antibodies were captured in individual flow cells at a flow rate of 10 μl/min. Injection time was varied for each antibody to yield an Rmax between 30 and 60 RU. […] The dissociation phase was monitored for up to 900 seconds. The surface was then regenerated with two 60-second injections of 10 mM Glycine-HCl (pH 1.7), at a flow rate of 60 μl/minute. The FGFR protein concentration range tested was 50 to 3.125 nM (two-fold dilutions).
as §3, with “BlAevalutation” for “BlAevaluation”, “(GE Healthcare)” for “(Biacore)”

[4] = molecular target: T3, recombinant human FGFR2 beta (IIIb)/Fc Chimera (human, UniProt P21802-3 152-378); assay: as above
T3 construct: Bought from R&D Systems; the IIIb isoform applies; also called rhFGFR2β-IIIb-Fc; human FGFR2-IIIb; Fc part of the bought chimera not given
T3 sequence (P21802 other isoform, or with tags, fused parts or gaps mutant): as the sequence (P21802 other isoform, or with tags, fused parts or gaps limits assumed) above
Protocol: as §4, §5
as §3, with “BlAevalutation” for “BlAevaluation”, “(GE Healthcare)” for “(Biacore)”

[5] = molecular target: T1, recombinant human FGFR1 beta (IIIb)/Fc …; assay: SPR (Biacore T100), antibody captured on anti-mouse IgG, FGFR protein as analyte, 25 C
Protocol: as §4, §5
as §3, with “BlAevalutation” for “BlAevaluation”, “(GE Healthcare)” for “(Biacore)”

[6] = molecular target: T2, recombinant human FGFR2 beta (IIIb)/Fc …; assay: as above
Protocol: as §4, §5
as §3, with “BlAevalutation” for “BlAevaluation”, “(GE Healthcare)” for “(Biacore)”

[7] = molecular target: T3, recombinant human FGFR2 beta (IIIb)/Fc …; assay: as above
Protocol: as §4, §5
as §3, with “BlAevalutation” for “BlAevaluation”, “(GE Healthcare)” for “(Biacore)”

Binder	Kd [1] [nM]	koff [1] [s⁻¹]	kon [1] [M⁻¹ s⁻¹]	Kd [2] [nM]	koff [2] [s⁻¹]	kon [2] [M⁻¹ s⁻¹]	Kd [3] [nM]	koff [3] [s⁻¹]	kon [3] [M⁻¹ s⁻¹]	Kd [4] [nM]	Kd [6] [nM]	Kd [7] [nM]	koff [7] [s⁻¹]	kon [7] [M⁻¹ s⁻¹]	binding result [5]
Hu4B9-82 (antibody, Humanized IgG1 kappa) heavy: not shown light: EIVLTQSPATLSLSPGERATLSCRASSSVNYMYWYQQKPGQAPRPWIYLTSNRATGIPARFSGSGSGTDYTLTISSLEPEDFAVYYCQQWSSNPYTFGQGTKLEIKRTVAAPSVFIFPPSDEQLKSGTASVVCLLNNFYPREAKVQWKVDNALQSGNSQESVTEQDSKDSTYSLSSTLTLSKADYEKHKVYACEVTHQGLSSPVTKSFNRGEC	0.49	9.4e-05	190000	0.93	0.00036	400000									
Hu4B9-65 (antibody, Humanized IgG1 kappa) heavy: not shown light: EIVLTQSPATLSLSPGERATLSCRASSSVNYMYWYQQKPGQAPRPWIYLTSNRATGVPARFSGSGSGTDYTLTISSLEPEDFAVYYCQQWSSNPYTFGQGTKLEIKRTVAAPSVFIFPPSDEQLKSGTASVVCLLNNFYPREAKVQWKVDNALQSGNSQESVTEQDSKDSTYSLSSTLTLSKADYEKHKVYACEVTHQGLSSPVTKSFNRGEC	0.26	6.5e-05	240000	0.89	0.00028	370000									

Second part, led by results:

Kd [1] [nM]	koff [1] [s⁻¹]	kon [1] [M⁻¹ s⁻¹]	Kd [2] [nM]	koff [2] [s⁻¹]	kon [2] [M⁻¹ s⁻¹]	Kd [3] [nM]	koff [3] [s⁻¹]	kon [3] [M⁻¹ s⁻¹]	Kd [4] [nM]	Kd [6] [nM]	Kd [7] [nM]	koff [7] [s⁻¹]	kon [7] [M⁻¹ s⁻¹]	Binder	binding result [5]
0.35	8.9e-05	260000	0.92	0.00029	320000									Hu4B9-83 (antibody, Humanized IgG1 kappa) heavy: not shown light: EIVLTQSPATLSLSPGERATLSCRASSSVNYMYWYQQKPGQAPRPWIYLTSNRATGIPARFSGSGSGTDFTLTISSLEPEDFAVYYCQQWSSNPYTFGQGTKLEIKRTVAAPSVFIFPPSDEQLKSGTASVVCLLNNFYPREAKVQWKVDNALQSGNSQESVTEQDSKDSTYSLSSTLTLSKADYEKHKVYACEVTHQGLSSPVTKSFNRGEC	
						1.2	0.000223	254000	2.96	4.2	0.61	4.6e-05	94000	antibody 4B9 (antibody, Murine IgG1 kappa from hybridoma clone 4B9; also called GP369; monoclonal antibody 4B9) heavy: EVQLQQSGTVLARPGASVKMSCKTSGYTFTSYWMHWVKQRPGQGLEWIGAIYPGNSDTDYSQKFKGKATLTAVTSATTAYMELSSLTNEDSAVYYCSKFDYWGQGTTLTVSSAKTTPPSVYPLAPGSAAQTNSMVTLGCLVKGYFPEPVTVTWNSGSLSSGVHTFPAVLQSDLYTLSSSVTVPSSTWPSQTVTCNVAHPASSTKVDKKIVPRDCGCKPCICTVPEVSSVFIFPPKPKDVLTITLTPKVTCVVVDISKDDPEVQFSWFVDDVEVHTAQTQPREEQFNSTFRSVSELPIMHQDWLNGKEFKCRVNSAAFPAPIEKTISKTKGRPKAPQVYTIPPPKEQMAKDKVSLTCMITDFFPEDITVEWQWNGQPAENYKNTQPIMDTDGSYFVYSKLNVQKSNWEAGNTFTCSVLHEGLHNHHTEKSLSHSPGK light: QIVLTQSPALMSASPGEKVTMTCSASSSVNYMYWYQQKPRSSPKPWIYLTSNLASGVPARFSGRGSGTSYSLTISSMEAEDAATYYCQQWSSNPYTFGGGTKLEIKRADAAPTVSIFPPSSEQLTSGGASVVCFLNNFYPRDINVKWKIDGSERQNGVLNSWTDQDSKDSTYSMSSTLTLTKDEYERHNSYTCEATHKTSTSPIVKSFNRNEC	no binding (tested: 50 to 3.125 nM tested)
